US20260167714A1 (COHERUS BIOSCIENCES, published 2026)

B1: L156S3 (antibody, IgG2a, V domains shown)
VH: QVQLKQSGAELVRPGASVKLSCRASGYTFTDYYMNWVKQRPGQGLEWIARIYPGVYRTHYNEKFKDKATLTAEKSSSTAYMELSSLTSEDSAVYFCARSGYYGGTYEEDAMDYWGQGTSVTVSS
VL: DIQMTQSPASLSVSVGETVTITCRASENIYSNLAWYQQKQGKSPQLLVYAATSLADGVPSRFRGSGSGTQYSLKISSLQSEDFGNYYCQNFWDTPYTFGGGTKLEIK
notes: also called mouse anti-human ILT4 antibody L156S3
B2: J19h1 (antibody, V domains shown)
VH: QITLKESGPTLVKPTQTLTLTCTFSGFSLNTYAMGVSWIRQPPGKALEWLASIWWNGNKYNNPSLKSRLTVTKDTSKNQVVLTMTNMDPVDTATYYCAHSRIIRFTDYVMDAWGQGTLVTVSS
VL: DIQMTQSPSSLSTSVGDRVTITCRASEDIYNDLAWYQQKPGKAPKLLIYNANSLHTGVASRFSGSGSGTDFTFTISSLQPEDVATYFCQQYYDYPLTFGQGTKLEIKR
B3: 1E1 (antibody, V domains shown)
VH: QVQLQQWGAGLLKPSETLSLTCAVYGGSFSGYYWSWIRQPPGKGLEWIGEINHSGSTNYNPSLKSRVTISVDTSKNQFSLKLSSVTAADTAVYYCARLPTRWVTTRYFDLWGRGTLVTVSS
VL: QSVLTQPPSVSGAPGQRVTISCTGSSSNIGAGYDVHWYQQLPGTAPKLLIYGNSNRPSGVPDRFSVSKSGASASLAITGLQAEDEADYYCQSFDNSLSAYVFGGGTQLTVL

Tests used:
[1] = molecular target: T1, recombinant human ILT4 (LILRB2) (human, UniProt Q8N423 22-460); assay: SPR, Biacore T200, medium resolution; koff held at its limit of 4.27e-5 s^-1; koff held at the limit, 1200 s of dissociation
T1 construct: Bought protein (Acro Biosystems or R&D Systems); also called ILTR4
Method: (§1) Label-free SPR analysis on a Biacore T200 instrument was utilized to measure antibody affinity to ILT4. CM4 sensor chips from Cytiva Inc. were utilized for all medium resolution analyses. Either anti-mouse Fc specific or anti-human Fc specific capture surfaces were prepared using standard amine coupling chemistry. Mouse, Chimera or Humanized mAbs were captured to their respective surfaces and ILT4 was injected across the surfaces from 101 nM to 0.79 nM in a 2-fold serial dilution series at a flow rate of 100 μL/min. The association phase was followed for 90 sec. while the dissociation phase was followed for 1200 sec. due to the medium resolution analysis implemented here. The sensorgrams were double-referenced and fit globally to a 1:1 interaction model with a term included for mass transport, and the equilibrium dissociation constant was calculated as KD=koff/kₒₙ. […] All kinetic experiments were performed at 25° C. in a buffer consisting of Hepes-buffered saline, pH 7.4, with 0.05% polysorbate 20 (HBS-P+) and 100 μg/ml Bovine Serum Albumin (BSA).

[2] = molecular target: T2, human ILT4 expressed on cells (human, UniProt Q8N423 22-597); assay: flow cytometry blocking assay: ILT4-expressing CHO cells preincubated with antibody, then PE-HLA-G; HLA-G binding MFI falls from about 105000 (no antibody) to near 0
T2 construct: whole, on cells; also called CHO-S/ILT4 cells; ILT4-CHO cells
Method: (§2) In the second blocking experiment, the primary antibody dilutions were made by diluting antibody to 15 μg/ml in FACS buffer. Three independent sets of eleven 2.5-fold serial dilutions were then made in FACS buffer from 15 μg/ml to 0.002 μg/ml. Each dilution set was handled independently, and 50 μl from each was added to cells in duplicate. Control wells received FACS buffer with no antibody. Wells were mixed and incubated for 30 minutes at 4 degrees C. Cells were washed twice in FACS buffer.
(§3) In both blocking experiments, phycoerythrin (PE)-conjugated HLA-G tetramer was diluted in FACS buffer to 5 μg/ml and 100 μl per well was added to cells. Cells were incubated at 4 degrees C. for 30 minutes, washed twice in FACS buffer, and resuspended in 250 μl FACS buffer with 0.1 μg/ml propidium iodide.
(§4) Cells were acquired on an Attune flow cytometer, with 5000 propidium iodide-negative cells collected per sample, and MFI was recorded. Relative blocking activity was calculated with the following formula: 100−(Sample MFI−Background MFI)/(Top MFI−Background MFI)*100. Prism software (Graphpad) was used to plot MFI and relative blocking activity for each sample. The blocking potency for each antibody, represented as IC₅₀, was calculated with Prism software.

[3] = molecular target: T2, human ILT4 expressed on cells; assay: flow cytometry, blockade of PE-HLA-G tetramer (5 µg/ml) binding to CHO-S/ILT4 cells, experiment 2
Method: as §2, §3, §4

[4] = molecular target: T1, recombinant human ILT4 (LILRB2); assay: SPR, Biacore T200, mAb captured on anti-Fc, ILT4 injected, medium resolution, 25 C
Method: as §1

[5] = molecular target: T1, recombinant human ILT4 (LILRB2); assay: SPR, Biacore T200, medium resolution; koff held at its limit of 4.27e-5 s^-1
Method: as §1

[6] = molecular target: T2, human ILT4 expressed on cells; assay: cell-based or functional assay
[7] = molecular target: T1, recombinant human ILT4 (LILRB2); assay: SPR, high resolution kinetics, triplicate
[8] = molecular target: T2, human ILT4 expressed on cells; assay: flow cytometry on ILT4-CHO cells, unlabelled mAb titrated; competitor AF647-Hz156.03-LALA
Method: (§5) Competition binding assays were performed. […] Binding activities were measured by flow cytometry.
Anti-human ILT4 mAbs at various concentrations (0-15 μg/ml) were incubated with ILT4-CHO cells. Cells were washed and stained with AF647-Hz156.03-LALA. Cells were analyzed by flow cytometry.

[9] = molecular target: T2, human ILT4 expressed on cells; assay: flow cytometry, blockade of PE-HLA-G tetramer (5 µg/ml) binding to CHO-S/ILT4 cells, experiment 1
[10] = molecular target: T2, human ILT4 expressed on cells; assay: flow cytometry on ILT4-CHO cells, unlabelled mAb titrated; competitor AF647-Hz45.01-LALA
Method: as §5
Anti-human ILT4 mAbs at various concentrations (0-15 μg/ml) were incubated with ILT4-CHO cells. Cells were washed and stained with AF647-Hz45.01-LALA. Cells were analyzed by flow cytometry.

[11] = molecular target: T1, recombinant human ILT4 (LILRB2); assay: SPR, high resolution kinetics, triplicate; 95% CI in parentheses
[12] = molecular target: T2, human ILT4 expressed on cells; assay: flow cytometry, blockade of PE-HLA-G tetramer (5 µg/ml) binding to CHO-S/ILT4 cells, experiment 1; remark: listed apart in the source
[13] = molecular target: T2, human ILT4 expressed on cells; assay: flow cytometry, blockade of PE-HLA-A tetramer (5 ug/ml) binding to ILT4-CHO cells, Experiment 1 (table title prints HLA-G)
[14] = molecular target: T2, human ILT4 expressed on cells; assay: flow cytometry, blockade of PE-HLA-A tetramer (5 ug/ml) binding to ILT4-CHO cells, Experiment 2 (table title prints HLA-G)
[15] = molecular target: T2, human ILT4 expressed on cells; assay: cell-based or functional assay; remark: listed apart in the source
[16] = molecular target: T2, human ILT4 expressed on cells; assay: flow cytometry, blockade of PE-HLA-G tetramer binding to ILT4-CHO cells, Experiment 1
[17] = molecular target: T2, human ILT4 expressed on cells; assay: flow cytometry, blockade of PE-HLA-A tetramer (5 ug/ml) binding to ILT4-CHO cells, Experiment 3 (table title prints HLA-G)
[18] = molecular target: T2, human ILT4 expressed on cells; assay: cell-based or functional assay; remark: listed apart in the source
[19] = molecular target: T2, human ILT4 expressed on cells; assay: flow cytometry, blockade of PE-HLA-G tetramer binding to ILT4-CHO cells, Experiment 3
[20] = molecular target: T2, human ILT4 expressed on cells; assay: flow cytometry, blockade of PE-HLA-G tetramer binding to ILT4-CHO cells, Experiment 2

T2 sequence (Q8N423 22-597): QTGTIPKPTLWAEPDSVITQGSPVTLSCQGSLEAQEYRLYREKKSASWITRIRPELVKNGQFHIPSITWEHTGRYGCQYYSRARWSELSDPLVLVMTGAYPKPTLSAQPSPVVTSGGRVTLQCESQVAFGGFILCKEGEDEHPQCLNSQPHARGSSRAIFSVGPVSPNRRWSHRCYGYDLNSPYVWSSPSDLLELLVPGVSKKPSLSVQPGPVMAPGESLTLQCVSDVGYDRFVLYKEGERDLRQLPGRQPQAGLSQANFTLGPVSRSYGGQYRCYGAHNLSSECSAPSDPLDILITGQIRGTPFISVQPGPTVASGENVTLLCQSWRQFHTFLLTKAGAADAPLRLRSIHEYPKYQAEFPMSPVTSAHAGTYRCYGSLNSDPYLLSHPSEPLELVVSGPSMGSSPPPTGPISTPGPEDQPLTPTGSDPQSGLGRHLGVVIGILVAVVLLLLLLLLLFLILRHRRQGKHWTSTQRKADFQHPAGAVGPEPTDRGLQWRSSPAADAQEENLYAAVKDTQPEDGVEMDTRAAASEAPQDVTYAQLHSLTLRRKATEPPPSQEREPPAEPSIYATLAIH
T1 sequence (Q8N423 other isoform, or with tags, fused parts or gaps limits assumed): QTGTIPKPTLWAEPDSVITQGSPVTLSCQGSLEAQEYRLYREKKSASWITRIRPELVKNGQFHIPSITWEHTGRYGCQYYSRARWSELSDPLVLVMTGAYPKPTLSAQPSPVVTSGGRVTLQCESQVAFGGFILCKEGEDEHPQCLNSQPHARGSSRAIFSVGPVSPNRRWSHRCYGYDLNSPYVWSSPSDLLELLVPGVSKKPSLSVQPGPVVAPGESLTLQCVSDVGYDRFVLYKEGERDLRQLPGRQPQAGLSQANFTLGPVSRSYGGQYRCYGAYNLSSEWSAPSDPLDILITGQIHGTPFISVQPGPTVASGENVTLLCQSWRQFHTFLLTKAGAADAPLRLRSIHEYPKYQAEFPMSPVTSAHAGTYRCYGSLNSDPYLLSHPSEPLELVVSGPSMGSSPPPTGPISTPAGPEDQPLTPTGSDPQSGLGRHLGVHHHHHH

Binder | IC50 [2] [µg/mL] | IC50 [3] [µg/mL] | Kd [7] [nM] | koff [7] [s⁻¹] | IC50 [8] [µg/mL] | fold decrease of PE-HLA-G MFI [9] [fold] | IC50 [10] [µg/mL] | kon [11] [M⁻¹ s⁻¹] | IC50 [12] [µg/mL] | other results
B1 | 0.088 | 0.113 |  |  |  |  |  |  |  | koff [1]: ≤ 4.27e-05 s⁻¹; kon [4]: 269000 M⁻¹ s⁻¹; Kd [5]: ≤ 0.16 nM; IL-6 secretion by LPS-stimulated M2 macrophages (MSD), fold over control [6]: 2 fold
B2 | 0.233 | 0.216 | 0.85 | 0.00433 | 0.0796 | ≤ 22 | 0.182 | 5.11e+06 | 0.13 | IL-6 secretion, fold over control, Donor A [6]: 3 fold; IL-6 secretion, fold over control, Donor B [6]: 2 fold; TNF-α secretion, fold over negative control [6]: 8 fold
B3 | 0.096 | 0.075 | 5.5 | 0.00895 | 0.336 | ≤ 30 | 0.171 | 1.62e+06 | 0.13 | IC50 [13]: 0.102 µg/mL; IC50 [14]: 0.107 µg/mL; EC50 value of IL-6 production, donor 4 [15]: 3.74 ng/mL; EC50 value of IL-6 production, donor 5 [15]: 13.9 ng/mL; IC50 [16]: 0.194 µg/mL; IC50 [17]: 0.0956 µg/mL; EC50 value of TNFa production, donor 4 [18]: 8.77 ng/mL; EC50 value of TNFa production, donor 5 [18]: 23.5 ng/mL; IC50 [19]: 0.151 µg/mL; IC50 [20]: 0.162 µg/mL
